# The nanobody polyreactivity screen of Harvey et al. (2022)
# Assay: yeast display, Sf9 membrane polyspecificity reagent, FACS + sequencing; frameworks hold sequencing errors
# Summary of the method: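 A nanobody's polyreactivity label depends on the gate it was sorted from. Yeast display cells were stained with 10% biotinylated, detergent-solubilized Sf9 membrane reagent for 1 hour at 4 °C, enriched on streptavidin microbeads and sorted by FACS. The low and high (top ~1%) gates were set on anti-HA fluorescence for expression and streptavidin fluorescence for reagent binding.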
row,Sequence,polyreactivity (PSR sort gate)
1,QVQLVESGGGLVQAGGSLRLSCAASGRTYRFNAMGWYRQAPGKERELVAAISKSGGSTYYADSVKGRFTISRDNAKNTVYLQMNSLKPEDTAVYYCAAQTYLYEYKYWGQGTQVTVSS,high polyreactivity
2,QVQLVESGGGLVQAGGSLRLSCAASGRTYRTYAMGWYRQAPGKEREFVAAITSSGGSTYYADSVKGRFTISRDNAKNTVDLEMNSLKPEDTAVYSCNAKRRYGPDKYDYWGQGTQVTVSS,high polyreactivity
3,QVQLVESGGGLVQAGGSLRLSCAASGRTYRWYVMGWYIQAPGTERELVAAISQSGGSTYYADSVKGRFTISRDNAMNTVYLEMYSLKPEDTAVYYCNAYPRYGGYAYGRGDYWGQGTQVTVSS,high polyreactivity
4,QVQLVESGGGLVQAGGSLRLSCAASGRTYRYNAMGWYRQAPGKERELVATITRTGSTDYADSVKGRFTISRDNAKNTVYLQMNSLKPEDTAVYYCNARGVYSGRTYYYIYDYWGQGTQVTVSS,high polyreactivity
5,QVQLVESGGGLVQAGGSLRLSCAASGRTYSYNAMGWYRQEPGKERELVAGITYTGGRTYYADSVKGRFTISRDNAKNTVYLQMNSLKPEDTAVYYCAVGEYGHWLYRYEYWGQGTQVTVSS,high polyreactivity
6,QVQLVESGGGLVQAGGSLRLSCAASGRTYWPNALGWSRQARGKERELVAAISWRGGSTSYADSVKGRFTISRDNAKNTVYLQMNRLKPEDTAVYYCAATSIRRNSKVLISGRLYDYWGQGTQVTVSS,high polyreactivity
7,QVQLVESGGGLVQAGGSLRLSCAASGRTYYYYAMGWYRQAPGTQRELVASIRYSTGSTYYADSVKARFTISRDNAKNTVYLQKNSLKPVDTAVYYCAGLRYARASRYDYWGLGTQVTVSS,high polyreactivity
8,QVQLVESGGGLVQAGGSLRLSCAASGRVFTPYAMGWYRQAPGKERELVAVIRDGSTYYADSVKGRFTISRDNAKNTVYLQMNSLKPEDTAVYYCRYDIWVWWSGAYDYWGQVTQVTVSS,low polyreactivity
9,QVQLVESGGGLVQAGGSLRLSCAASGSFGFYVMGWYRQAPGKERELVSAISSVGSTNYADSVKGRFTISRDNAKNTVYFQMNSLKPEDTAVYYCARRYWYPDAFYRYDYWGQGTQVTVSS,low polyreactivity
10,QVQLVESGGGLVQAGGSLRLSCAASGSFYDRYVMGWYRQAPGKERELVAAISSSGGSTYYADSVKGRFTISRDNAKNTVYFQMNSLKPEDSAVYYCAAKFSYGRYNYWGQGTQVTVSS,high polyreactivity
11,QVQLVESGGGLVQAGGSLRLSCAASGSIAHYAMGWYRQAPGKERELVAAINWSGGSTNYADSVKGRFTISRDNAKNTVYLQMNSLKPEDTAVYYCNAAGGYKPYLQDVASRYDYWGQGTQVTVSS,high polyreactivity
12,QVQLVESGGGLVQAGGSLRLSCAASGSIAKINAMGWYRQAPGKERELVAAINTGDSTYYADSVKGRFTISRDNAKNTVYLQMNSLKPEDTAVYYCAAEGSPNGYDYWGQGTQVTVSS,low polyreactivity
13,QVQLVESGGGLVQAGGSLRLSCAASGSICGTYAMGWYRQAPGKERELVARITRGVSTNYADSVKGRFTISRDNAKNTVYLQMTSLKPEDTAVYYCAAESGNRYEYWGQGTQVTVSS,low polyreactivity
14,QVQLVESGGGLVQAGGSLRLSCAASGSICVRNAMGWYRQAPGKERELVAADSVKGRFTISRDNAKNTVYLQMNSLKPEDTAVYYCNKAYIIRRGPIVYYGFDYWGQGTQVTVSS,low polyreactivity
15,QVQLVESGGGLVQAGGSLRLSCAASGSIDGRYAMGWYRQAPGKERELVAVITSGGSTNYADSVKGRFTISRDNAKNTVYLQMKSLKPEDTAVYYCAVRPYALHRLADQPGGDDYWGQGTQVTVSS,low polyreactivity
16,QVQLVESGGGLVQAGGSLRLSCAASGSIDRFYAMGWYRQAPRKERDLVAFITSTGRTYYADSVKGRFTISRDNAKNTVYLQMNSLKPEDTAVYYCAAGYPKRVAYLWFSQYDYWGKGTQVTVSS,low polyreactivity

row,Sequence,polyreactivity (PSR sort gate)
1,QVQLVESGGGLVQAGGSLRLSCAASGSIFAANALGWYRQAPGKERELVAAITSGGGSTYYADSVKGRFTISRDNAKNTVYLQMNSLKPEDTAVYYCAARSLVQDHAYGNNYWGQGTQVTVSS,low polyreactivity
2,QVQLVESGGGLVQAGGSLRLSCAASGSIFADYAMGWYRQAPGKERELVSAITGSGGRTYYADSVKGRFTISRDNAKNTLYLQMNSLKPEDTAVYYCAADGLSNVRQMDYWGQGTQVTVSS,low polyreactivity
3,QVQLVESGGGLVQAGGSLRLSCAASGSIFAFNAMGWYRQAPGKERELVAAMSGSGARTYYADSVKGRFTTSRDNAKNTVYLQLNSLKPEDTAVYYCARPYGYGYDYWGQGTQVTVSS,high polyreactivity
4,QVQLVESGGGLVQAGGSLRLSCAASGSIFAFYAKGWYRQAPGKERELVAYITSGGSTYYADSVKGRFTISRDNAKNNVYLQMNSLKPEDTAVYYFNSVYYSALVSGGETTIKRRYYWGQGTQVTVSS,high polyreactivity
5,QVQLVESGGGLVQAGGSLRLSCAASGSIFAGHAMGWSIQAPGKERELVAAISRRGGNTYYADSVKGRFTISRDNAKNTVYLQMNSLKPEDTAVYYCAVRSRLYSSSIAYDYWGQGTQVTVSS,high polyreactivity
6,QVQLVESGGGLVQAGGSLRLSCAASGSIFAGYAMGWYRQAPGKERELVAAITSRGGNTYYADSVKGRFTISRDNAKNTVYLQMNSLKPEDTAVYYCAADVTRWSWVGTHYYWGQGTQVTVSS,high polyreactivity
7,QVQLVESGGGLVQAGGSLRLSCAASGSIFAHYAMGWYRQAPGKERELVARISWSGGSTYYADSVKGRFTISRDNEKNTVYLQKNSMKPEDTAVYYCARAGRSWDTLYKYYLEHDYWGQGTQVTVSS,low polyreactivity
8,QVQLVESGGGLVQAGGSLRLSCAASGSIFAINAMGWDRQAPGKERELVAAITRGGSTYADSVKGRFTISRDNAKNTVYLQINSLKPEDTAVYYCAARWYRRGNGFNYWGQCTQVTVSS,high polyreactivity
9,QVQLVESGGGLVQAGGSLRLSCAASGSIFAIYAMGWYRQAPGKERELVAAISSSSGSTYYADSVKARFTISRDNAKNTVYLQMYSLKPEDTAVYYCAAESGRRIKYWRGYYYWGQGTQVTVSS,low polyreactivity
10,QVQLVESGGGLVQAGGSLRLSCAASGSIFAKNAMGWYRQAPGKERELVAGIDFSGGSTYSADSVKGRFTISRDNAQNTVYLQMNSLKPEDTAVDYCAADWAYKYELDYWGQGTQVTVSS,low polyreactivity
11,QVQLVESGGGLVQAGGSLRLSCAASGSIFALYAMGWSRQEPGKEREFVAAISYRGGRTYYADSVKGRFTISRDNAKNTVYLQMNSLKPEDTAVYYCDTDFPGKFDYWGQGTQVTVSS,low polyreactivity
12,QVQLVESGGGLVQAGGSLRLSCAASGSIFANYAMGWYRQAPGKERELVAAITFSSGDSTYYADSVKGRFTISRDNAKNTVYLQMNSLKPEDTAVDYCATVTYGWSGYDYWGQGTQVTVSS,low polyreactivity
13,QVQLVESGGGLVQAGGSLRLSCAASGSIFAPYVMGWYRQAPGKERELVAAITESGGRTYYADSVKGRFTISRDNAKNTVYLQMNSLKPEDTAVYYCAARTYDRNRQLRRQWYDYWGQGTQVTVSS,high polyreactivity
14,QVQLVESGGGLVQAGGSLRLSCAASGSIFARYAMGWYRQAPGKERELVATITRGGSTNYADSVKGRFTISRDNAKNTVYLQMNSLKPEDTAVYYCARTSYGRLDYWGQGTQVTVSS,low polyreactivity
15,QVQLVESGGGLVQAGGSLRLSCAASGSIFARYTMGWYRQAPGKERELVAAISTSGSRTYYADSVKGRFTISRDNAKNCVYLLMNSLKPEDTAVYYCNVAWIWGKYDYWGPGTQVTVSS,high polyreactivity
16,QVQLVESGGGLVQAGGSLRLSCAASGSIFASNAMGWYRQAPGKERELVADISGTTGSTYYADSVKGRFTISRDNAKNTVYLQMNSLKPEDTAVYYCAADLVWVSTSYYYWGQGTLVTVSS,low polyreactivity
